In publication doi:10.1101/2024.12.26.630402 (bioRxiv, 2024):

Biological target: the molecule itself
Assay: cryo-EM structure

B1: large glutamate dehydrogenase of 180 kDa subunits from Mycobacterium smegmatis (mL-GDH180) (enzyme)
chain: MIRRLSVAFLSTYRGPQADAPGVTSTGPLAVAAHDDLVSDDLVAAHYRLASMRAPGETKAAVYPGDAGSGAALQIVTDQAPMLVDSVTVLLHRHGIAYTAIMNPVFRVRRGLDGELLDVRPAAEAAPGDGADECWILVPITAAADGEALTEATRLVPGILAEARQIGLDSGAMIAALHGLANDLATDLEGHFPNAERKEVAALLRWLADGHFVLLGYQQCVVGDGNAEVDPASRLGVLRLRNDVLPPLTDSDDLLVLAQATMPSYLRYGAYPYIVVVRESPGASRVIEHRFVGLFTVAAMNANALEIPLISRRVEEALAMAHRDPSHPGQLLRDIIQTIPRPELFALSSKQLLEMALAVVDLGSRRRTLLFLRADHLAHFVSCLVYLPRDRYTTAVRLEMQDILVRELGGAGIDYSARVSESPWAVVHFTVRLPEGTAADSVDTSLENESRIQDLLTEATRNWGDRMISAAAAASISPAALEHYAHAFPEDYKQAFAPQDAIADISLIEALQDDSVKLVLADTAEDRVWKLTWYLGGHSASLSELLPMLQSMGVVVLEERPFTLRRTDGLPVWIYQFKISPHPSIPHAPDAEAQRDTAQRFADAVTAIWHGRVEIDRFNELVMRAGLTWQQVVVLRAYAKYLRQAGFPYSQSHIESVLNENPHTTRSLIDLFEALFDPSQETDGRRDAQGAAAAVAADIDALVSLDTDRVLRAFANLIEATLRTNYFVARPDSARARNVLAFKLNPLVIKELPLPRPKFEIFVYSPRVEGVHLRFGFVARGGLRWSDRREDFRTEILGLVKAQAVKNAVIVPVGAKGGFVVKRPPTLTGDAAADREATRAEGVECYRLFISGLLDVTDNVDKATGAVVTPPEVVRRDGEDAYLVVAADKGTATFSDIANEVAKSYGFWLGDAFASGGSIGYDHKAMGITAKGAWESVKRHFREMGVDTQTQDFTVVGIGDMSGDVFGNGMLLSKHIRLVAAFDHRDIFLDPNPDAGRSWDERKRLFDLPRSSWADYDKSLISEGGGVYSRQQKSIPISPQVRTALGLDADVEELTPPALIKAILKAPVDLLWNGGIGTYIKAETEADADVGDRANDQIRVCGNQVRAKVIGEGGNLGVTALGRIEFDLAGGRINTDALDNSAGVDCSDHEVNIKILIDSAVTAGKVTPEERTELLLSMTDEVGELVLADNRDQNDLMGTSRANAASLLSVHARMIKDLVDNRGLNRELEALPSEKEIRRRADAGIGLTSPELATLMAHVKLALKDDVLASDLPDQEVFASRLPYYFPTRLREELHGEIRSHQLRREIITTMLVNDLVDTAGISYAYRITEDVGVGPVDAVRSYVAINAIFGIGDVWRRIRAAGDAGVPTSVTDRMTLDLRRLVDRAGRWLLNYRPQPLAVGAEINRFGAKVAALTPRMSEWLRGDDKAIVSKEAGDFASHGVPEDLAYHIATGLYQYSLLDVIDIADIVDREPDEVADTYFALMDHLGADALLTAVSRLSRDDRWHSLARLAIRDDIYGSLRALCFDVLAVGEPDENGEEKIAEWETTNSSRVTRARRTLTEIYKDGEQDLATLSVAARQIRSMTRTSGTGTTG
stoichiometry N: 4
